pIC50, pKd: −log10 of the molar value. Each block holds one substance with its values, some of them ahead of it.
Key:
[1] = target: Cul1^d-N8/Rbx1^∆RING (human) (UniProt Q13616)
[2] = target: Cul1^d-N8/Rbx1^∆RING (human) (UniProt Q13616); remark: listed apart in the source
SKP1 = test: anti-Flag immunoprecipitation, SILAC mass spectrometry; details: HEK293T; mutant in light medium, wild type in heavy medium; read off a plot
CUL3 = test: as above; details: HEK293T; mutant in light medium, wild type in heavy medium; read off a plot
Elongin B = test: as above; details: HEK293T; mutant in light medium, wild type in heavy medium; read off a plot
CUL1 = test: as above; details: HEK293T; mutant in light medium, wild type in heavy medium; read off a plot
DDB1 = test: as above; details: HEK293T; mutant in light medium, wild type in heavy medium; read off a plot
CUL4B = test: as above; details: HEK293T; mutant in light medium, wild type in heavy medium; read off a plot
RBX1 = test: as above; details: HEK293T; mutant in light medium, wild type in heavy medium; read off a plot
CUL2 = test: as above; details: HEK293T; mutant in light medium, wild type in heavy medium; read off a plot
CUL4A = test: as above; details: HEK293T; mutant in light medium, wild type in heavy medium; read off a plot
Elongin C = test: as above; details: HEK293T; mutant in light medium, wild type in heavy medium; read off a plot
[3] = target: COP9-Signalosome (CSN), wild type (human) (UniProt Q13098)

Sequence of unlabeled Cul1/Rbx1 (Q13616 whole entry): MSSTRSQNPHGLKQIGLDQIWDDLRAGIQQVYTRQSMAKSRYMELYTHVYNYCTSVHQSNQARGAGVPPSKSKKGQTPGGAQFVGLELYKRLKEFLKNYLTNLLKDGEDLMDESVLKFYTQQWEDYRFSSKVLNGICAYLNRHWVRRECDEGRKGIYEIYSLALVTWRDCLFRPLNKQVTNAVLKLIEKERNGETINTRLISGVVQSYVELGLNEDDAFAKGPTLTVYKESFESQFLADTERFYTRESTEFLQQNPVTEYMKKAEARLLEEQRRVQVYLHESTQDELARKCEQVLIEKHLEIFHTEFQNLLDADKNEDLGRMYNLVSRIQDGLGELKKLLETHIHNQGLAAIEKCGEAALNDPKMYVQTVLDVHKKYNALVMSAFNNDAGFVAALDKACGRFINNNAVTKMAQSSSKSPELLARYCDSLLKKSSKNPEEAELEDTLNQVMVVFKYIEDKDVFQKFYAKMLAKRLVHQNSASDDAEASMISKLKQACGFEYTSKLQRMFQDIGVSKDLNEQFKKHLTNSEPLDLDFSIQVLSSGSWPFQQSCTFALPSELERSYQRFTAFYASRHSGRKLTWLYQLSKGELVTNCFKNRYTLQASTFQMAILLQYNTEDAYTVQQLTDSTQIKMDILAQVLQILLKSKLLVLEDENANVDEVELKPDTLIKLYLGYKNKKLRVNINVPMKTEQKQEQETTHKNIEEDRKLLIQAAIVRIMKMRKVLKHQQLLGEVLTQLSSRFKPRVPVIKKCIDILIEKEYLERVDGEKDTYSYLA
Sequence of unlabeled Cul1/Rbx1 (P62877 whole entry): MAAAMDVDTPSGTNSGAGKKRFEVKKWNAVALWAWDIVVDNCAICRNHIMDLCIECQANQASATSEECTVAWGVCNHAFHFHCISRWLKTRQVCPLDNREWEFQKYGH

KM of deneddylation of Cul1-N8/Rbx1^∆RING (with the sortase sequence, not dansylated) by CSN [1]: 5 nM
Substance: COP9-Signalosome (CSN), wild type (from UniProt Q13098 1-491; P61201 1-443; Q9UNS2 1-423; Q9BT78 1-406; Q92905 1-334; Q7L5N1 1-327; Q9H9Q2 1-264; Q99627 1-209) (complex)

pKd [2]: 7.89
Substance: CSN^5E76A (from UniProt Q13098 1-491; P61201 1-443; Q9UNS2 1-423; Q9BT78 1-406; Q92905 1-334; Q7L5N1 1-327; Q9H9Q2 1-264; Q99627 1-209) (complex)

ratio to parent (SKP1): 0.88
ratio to parent (CUL3): 0.75
ratio to parent (Elongin B): 0.85
ratio to parent (CUL1): 0.9
ratio to parent (DDB1): 0.78
ratio to parent (CUL4B): 0.63
ratio to parent (RBX1): 0.92
ratio to parent (CUL2): 0.83
ratio to parent (CUL4A): 0.57
ratio to parent (Elongin C): 0.8
Substance: Flag-tagged wild type Csn5 (from UniProt Q92905) T103I

pIC50 [3]: 6.41
Substance: unlabeled Cul1/Rbx1 (from UniProt Q13616 1-776; P62877 1-108) (complex)
